In paper doi:10.1101/790931:
No end group written: not given here.

T1: C-terminal domain of E. coli TolA (E. coli)
T1 sequence (P19934 whole entry, looked up): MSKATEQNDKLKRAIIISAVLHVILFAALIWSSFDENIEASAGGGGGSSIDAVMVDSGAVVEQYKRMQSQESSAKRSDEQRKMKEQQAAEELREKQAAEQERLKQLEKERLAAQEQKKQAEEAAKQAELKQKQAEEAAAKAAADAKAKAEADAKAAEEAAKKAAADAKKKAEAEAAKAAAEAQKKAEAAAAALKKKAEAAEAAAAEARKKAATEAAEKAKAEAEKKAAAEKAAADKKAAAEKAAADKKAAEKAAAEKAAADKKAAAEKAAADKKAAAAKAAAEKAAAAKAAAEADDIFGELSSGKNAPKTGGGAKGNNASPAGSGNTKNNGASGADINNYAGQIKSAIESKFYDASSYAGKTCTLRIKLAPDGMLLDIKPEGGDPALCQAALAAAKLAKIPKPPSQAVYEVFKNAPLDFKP


How the values were obtained:
[1] = target: FITC-labelled P. aeruginosa TolB[22-34] peptide (Pseudomonas aeruginosa); assay: fluorescence polarisation
[2] = target: T1, C-terminal domain of E. coli TolA (E. coli); assay: ITC

Sequence of P. aeruginosa TolA (residues 224-344) lacking its short C-terminal α-helix (P50600 224-344): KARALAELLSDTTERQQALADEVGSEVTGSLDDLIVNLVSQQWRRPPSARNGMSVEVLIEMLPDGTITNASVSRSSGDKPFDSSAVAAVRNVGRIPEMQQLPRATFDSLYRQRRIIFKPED
Sequence of C-terminal domain of Pseudomonas aeruginosa TolA (TolA^224-347) (P50600 224-347): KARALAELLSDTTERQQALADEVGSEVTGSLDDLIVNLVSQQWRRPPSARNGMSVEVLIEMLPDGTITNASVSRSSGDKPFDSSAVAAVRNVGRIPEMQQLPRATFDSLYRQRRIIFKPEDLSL

Molecule | Kd [1] [µM] | koff [1] [s⁻¹] | kon [1] [M⁻¹ s⁻¹] | Kd [2] [µM] | dH [2] [kcal/mol] | stoichiometry N [2]
C-terminal domain of Pseudomonas aeruginosa TolA (TolA^224-347) (from UniProt P50600 224-347) (domain or fragment) | 250 | 0.9 | 7400 |  |  | 
P. aeruginosa TolA (residues 224-344) lacking its short C-terminal α-helix (from UniProt P50600 224-344) (domain or fragment) | 86 | 1.4 | 23800 |  |  | 
EVRIVIDSGVDS-NH2 [E. coli TolB peptide (residues 22-33)] |  |  |  | 44 | -3.79 | 0.56
